This note sets out measurements from patent US20160340421A1.

In assay [1] the target is Human GDF8 homodimer (mature human Growth and Differentiation Factor-8) (human) (UniProt O14793). Put plainly: Luminex: hGDF8 beads with 1.25 µg/ml antibody, then Activin RIIB-mFc; MFI of bound Activin RIIB-mFc (n=3).
Assay [2] deals with hGDF11 homodimer (human) (UniProt O95390). Kind of assay: SPR, antibody captured, 25 nM antigen. (In general: In SPR one partner is held on a chip, and binding of the other changes the refractive index at the surface.)
Sequence of hGDF11 homodimer (human) (O95390 299-407 limits assumed): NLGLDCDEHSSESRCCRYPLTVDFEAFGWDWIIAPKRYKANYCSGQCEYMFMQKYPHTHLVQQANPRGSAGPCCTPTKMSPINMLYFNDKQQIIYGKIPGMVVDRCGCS
In assay [3] the target is Human GDF8 homodimer (mature human Growth and Differentiation Factor-8) (human) (UniProt O14793). Put plainly: SPR, antibody captured, 25 nM antigen.
Assay [4] has as its target hGDF11 homodimer (human) (UniProt O95390). Kind of assay: cell-based or functional assay.
In assay [5] the target is Human GDF8 homodimer (mature human Growth and Differentiation Factor-8) (human) (UniProt O14793). Put plainly: cell-based or functional assay.
The target of assay [6] is GDF8/TGFβ[48-72] chimera (T48): GDF8.1-47.TGFβ1.49-76.GDF8.73-109 (human GDF8 with human TGFβ-1 sequence). Put plainly: cell-based or functional assay.
Target sequence (chain, as listed by the source mutant limits assumed): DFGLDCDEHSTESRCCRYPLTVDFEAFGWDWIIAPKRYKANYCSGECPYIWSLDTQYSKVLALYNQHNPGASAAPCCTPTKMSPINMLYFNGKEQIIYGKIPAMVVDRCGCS
Assay [7] concerns the target hGDF11 homodimer (human) (UniProt O95390). Kind of assay: SPR Biacore T100, captured on anti-hFc, 25°C.
Assay [8] has as its target Human GDF8 homodimer (mature human Growth and Differentiation Factor-8) (human) (UniProt O14793). Put plainly: SPR Biacore T100, captured on anti-hFc, 25°C.
Assay [9] has as its target hGDF11 homodimer (human) (UniProt O95390). Put plainly: SPR Biacore T100, captured on anti-hFc, 37°C.
The target in assay [10] is Human GDF8 homodimer (mature human Growth and Differentiation Factor-8) (human) (UniProt O14793). Kind of assay: SPR Biacore T100, captured on anti-hFc, 37°C.
The target of assay [11] is hGDF11 homodimer (human) (UniProt O95390). Kind of assay: SPR, antibody captured, buffer without BSA.
Assay [12] has as its target Human GDF8 homodimer (mature human Growth and Differentiation Factor-8) (human) (UniProt O14793). Kind of assay: SPR, antibody captured, buffer without BSA.

Sequence of Human GDF8 homodimer (mature human Growth and Differentiation Factor-8) (human) (O14793 267-375): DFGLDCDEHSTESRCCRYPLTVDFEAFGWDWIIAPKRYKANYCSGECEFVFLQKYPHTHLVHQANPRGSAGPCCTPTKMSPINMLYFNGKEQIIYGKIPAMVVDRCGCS

In turn, “Control I: human anti-GDF8 antibody with the heavy and light chain variable regions of Myo29” had an MFI in assay [1] of 58. In addition, the equilibrium dissociation constant (Kd) with hGDF11 homodimer (human) [2] turned out to be 0.08 nM; in [3], 0.05 nM; with hGDF11 homodimer (human) [7] it was 0.0146 nM; in assay [8], 0.0103 nM; with hGDF11 homodimer (human) [9], 0.0274 nM; in assay [10], 0.0244 nM. Further, the values for the dissociation constant (Kd) (with hGDF11 homodimer (human) [11]; in [12]) were 0.001 nM and 0.002 nM, respectively. The T1/2 with hGDF11 homodimer (human) [2] turned out to be 2.27 h; in assay [3], 3.18 h; in the assay with hGDF11 homodimer (human) [7], 3.68 h; in assay [8], 4.55 h; with hGDF11 homodimer (human) [9], 0.933 h; in assay [10] it was 1.17 h. Besides, the figures for the T1/2 (in the assay with hGDF11 homodimer (human) [11]; in assay [12]) were 1.75 h and 21.7 h, respectively. In the assay with hGDF11 homodimer (human) [4], this substance came in with an IC50, GDF11-inducible luciferase, A204/Smad2 cells, 0.8 nM GDF11 of 0.94 nM. In the assay with hGDF11 homodimer (human) [4], this substance came in with an IC50, luciferase bioassay, 0.4 nM GDF11 of 0.255 nM. Further, in the assay with hGDF11 homodimer (human) [4], the IC50, luciferase bioassay, 0.8 nM GDF11 was 0.459 nM. This substance also gave an IC50, GDF8-inducible luciferase, A204/Smad2 cells, 0.8 nM GDF8 in assay [5] of 0.62 nM. Besides, the IC50, luciferase bioassay, 0.5 nM GDF8 in assay [5] was 0.172 nM. For the same substance, the IC50, luciferase bioassay, 1 nM GDF8 in [5] was found to be 0.398 nM. This substance also yielded an approximate IC50, luciferase bioassay with GDF8/TGFβ[48-72] conditioned medium in assay [6] of 0.402 nM.

Negative Control (Table 11): the MFI in [1] was 4560.

As usually defined, the Kd is the free concentration of one partner at which half of the binding sites on the other are occupied at equilibrium, for simple one-to-one binding. High values mean a looser complex, low ones a tighter complex.
